According to patent US20220211812A1 (Bristol-Myers Squibb, published 2022):

B1: AQ1-Glu-C13-CH3 (ligand)
chain 1: XLYSALANKCCHVGCTKRSLARFC
chain 2: ASWMEEVIKLCGRELVRAQIAICGMSTWS
modifications: not fully specified; pAcF (para-acetyl-L-phenylalanine) at position 1, oxime-linked to PK enhancer Glu-C13-CH3
B2: AQ1-EEEEPEEEEPEEEEPEEEE-Glu^γ-C14-CH3 (ligand)
chain 1: XLYSALANKCCHVGCTKRSLARFC
chain 2: ASWMEEVIKLCGRELVRAQIAICGMSTWS
peptide: EEEEPEEEEPEEEEPEEEEE
modifications: not fully specified; Glu^γ bonded by amide to fatty acid -C14-CH3; oxime-linked to pAcF of the A chain; pAcF (para-acetyl-L-phenylalanine) at position 1, oxime-linked to PK enhancer EEEEPEEEEPEEEEPEEEE-Glu^γ-C14-CH3
B3: AQ1-EGGGP-Glu^γ-C14-COOH (ligand)
chain 1: XLYSALANKCCHVGCTKRSLARFC
chain 2: ASWMEEVIKLCGRELVRAQIAICGMSTWS
peptide: EGGGPE
modifications: not fully specified; Glu^γ bonded by amide to fatty acid -C14-COOH; oxime-linked to pAcF of the A chain; pAcF (para-acetyl-L-phenylalanine) at position 1, oxime-linked to PK enhancer EGGGP-Glu^γ-C14-COOH
B4: AQ1-GSPGSP-Glu^γ-C14-COOH (ligand)
chain 1: XLYSALANKCCHVGCTKRSLARFC
chain 2: ASWMEEVIKLCGRELVRAQIAICGMSTWS
peptide: GSPGSPE
modifications: not fully specified; Glu^γ bonded by amide to fatty acid -C14-COOH; oxime-linked to pAcF of the A chain; pAcF (para-acetyl-L-phenylalanine) at position 1, oxime-linked to PK enhancer GSPGSP-Glu^γ-C14-COOH
B5: AQ1-Glu-C13-COOH (ligand)
chain 1: XLYSALANKCCHVGCTKRSLARFC
chain 2: ASWMEEVIKLCGRELVRAQIAICGMSTWS
modifications: not fully specified; pAcF (para-acetyl-L-phenylalanine) at position 1, oxime-linked to PK enhancer Glu-C13-COOH
B6: AQ1-KGP-Glu^γ-C14-COOH (ligand)
chain 1: XLYSALANKCCHVGCTKRSLARFC
chain 2: ASWMEEVIKLCGRELVRAQIAICGMSTWS
peptide: KGPE
modifications: not fully specified; Glu^γ bonded by amide to fatty acid -C14-COOH; oxime-linked to pAcF of the A chain; pAcF (para-acetyl-L-phenylalanine) at position 1, oxime-linked to PK enhancer KGP-Glu^γ-C14-COOH
B7: AQ1-GGGGP-Glu^γ-C14-COOH (ligand)
chain 1: XLYSALANKCCHVGCTKRSLARFC
chain 2: ASWMEEVIKLCGRELVRAQIAICGMSTWS
peptide: GGGGPE
modifications: not fully specified; Glu^γ bonded by amide to fatty acid -C14-COOH; oxime-linked to pAcF of the A chain; pAcF (para-acetyl-L-phenylalanine) at position 1, oxime-linked to PK enhancer GGGGP-Glu^γ-C14-COOH
B8: AQ1-20kDa PEG (ligand)
chain 1: XLYSALANKCCHVGCTKRSLARFC
chain 2: ASWMEEVIKLCGRELVRAQIAICGMSTWS
modifications: pAcF (para-acetyl-L-phenylalanine) at position 1, oxime-linked to 20 kDa PEG
B9: AQ1-KGGGSE-Glu^γ-C14-COOH (ligand)
chain 1: XLYSALANKCCHVGCTKRSLARFC
chain 2: ASWMEEVIKLCGRELVRAQIAICGMSTWS
peptide: KGGGSEE
modifications: not fully specified; Glu^γ bonded by amide to fatty acid -C14-COOH; oxime-linked to pAcF of the A chain; pAcF (para-acetyl-L-phenylalanine) at position 1, oxime-linked to PK enhancer KGGGSE-Glu^γ-C14-COOH
B10: AQ1-EEEEEE-Glu^γ-C14-CH3 (ligand)
chain 1: XLYSALANKCCHVGCTKRSLARFC
chain 2: ASWMEEVIKLCGRELVRAQIAICGMSTWS
peptide: EEEEEEE
modifications: not fully specified; Glu^γ bonded by amide to fatty acid -C14-CH3; oxime-linked to pAcF of the A chain; pAcF (para-acetyl-L-phenylalanine) at position 1, oxime-linked to PK enhancer EEEEEE-Glu^γ-C14-CH3
B11: AQ1-KK-Glu^γ-C14-CH3 (ligand)
chain 1: XLYSALANKCCHVGCTKRSLARFC
chain 2: ASWMEEVIKLCGRELVRAQIAICGMSTWS
peptide: KKE
modifications: not fully specified; Glu^γ bonded by amide to fatty acid -C14-CH3; oxime-linked to pAcF of the A chain; pAcF (para-acetyl-L-phenylalanine) at position 1, oxime-linked to PK enhancer KK-Glu^γ-C14-CH3
B12: AQ1-EEEEEE-Glu^γ-C15-COOH (ligand)
chain 1: XLYSALANKCCHVGCTKRSLARFC
chain 2: ASWMEEVIKLCGRELVRAQIAICGMSTWS
peptide: EEEEEEE
modifications: not fully specified; Glu^γ bonded by amide to fatty acid -C15-COOH; oxime-linked to pAcF of the A chain; pAcF (para-acetyl-L-phenylalanine) at position 1, oxime-linked to PK enhancer EEEEEE-Glu^γ-C15-COOH
B13: AQ1-SGGGS-Glu^γ-C14-COOH (ligand)
chain 1: XLYSALANKCCHVGCTKRSLARFC
chain 2: ASWMEEVIKLCGRELVRAQIAICGMSTWS
peptide: SGGGSE
modifications: not fully specified; Glu^γ bonded by amide to fatty acid -C14-COOH; oxime-linked to pAcF of the A chain; pAcF (para-acetyl-L-phenylalanine) at position 1, oxime-linked to PK enhancer SGGGS-Glu^γ-C14-COOH
B14: AQ1-EEEEGEEEEGEEEEGEEEE-Gluγ-C14-CH3 (ligand)
chain 1: XLYSALANKCCHVGCTKRSLARFC
chain 2: ASWMEEVIKLCGRELVRAQIAICGMSTWS
peptide: EEEEGEEEEGEEEEGEEEEE
modifications: not fully specified; Glu^γ bonded by amide to fatty acid -C14-CH3; oxime-linked to pAcF of the A chain; pAcF (para-acetyl-L-phenylalanine) at position 1, oxime-linked to PK enhancer EEEEGEEEEGEEEEGEEEE-Gluγ-C14-CH3
B15: AQ1-KGGGS-Glu^γ-C14-COOH (ligand)
chain 1: XLYSALANKCCHVGCTKRSLARFC
chain 2: ASWMEEVIKLCGRELVRAQIAICGMSTWS
peptide: KGGGSE
modifications: not fully specified; Glu^γ bonded by amide to fatty acid -C14-COOH; oxime-linked to pAcF of the A chain; pAcF (para-acetyl-L-phenylalanine) at position 1, oxime-linked to PK enhancer KGGGS-Glu^γ-C14-COOH
B16: AQ1-KGPGSE-Glu^γ-C14-COOH (ligand)
chain 1: XLYSALANKCCHVGCTKRSLARFC
chain 2: ASWMEEVIKLCGRELVRAQIAICGMSTWS
peptide: KGPGSEE
modifications: not fully specified; Glu^γ bonded by amide to fatty acid -C14-COOH; oxime-linked to pAcF of the A chain; pAcF (para-acetyl-L-phenylalanine) at position 1, oxime-linked to PK enhancer KGPGSE-Glu^γ-C14-COOH

What follows are binders tested against T1, human RXFP1 receptor (human, UniProt Q9HBX9 1-757) (assay: cell-based or functional assay).
T1 sequence (looked up): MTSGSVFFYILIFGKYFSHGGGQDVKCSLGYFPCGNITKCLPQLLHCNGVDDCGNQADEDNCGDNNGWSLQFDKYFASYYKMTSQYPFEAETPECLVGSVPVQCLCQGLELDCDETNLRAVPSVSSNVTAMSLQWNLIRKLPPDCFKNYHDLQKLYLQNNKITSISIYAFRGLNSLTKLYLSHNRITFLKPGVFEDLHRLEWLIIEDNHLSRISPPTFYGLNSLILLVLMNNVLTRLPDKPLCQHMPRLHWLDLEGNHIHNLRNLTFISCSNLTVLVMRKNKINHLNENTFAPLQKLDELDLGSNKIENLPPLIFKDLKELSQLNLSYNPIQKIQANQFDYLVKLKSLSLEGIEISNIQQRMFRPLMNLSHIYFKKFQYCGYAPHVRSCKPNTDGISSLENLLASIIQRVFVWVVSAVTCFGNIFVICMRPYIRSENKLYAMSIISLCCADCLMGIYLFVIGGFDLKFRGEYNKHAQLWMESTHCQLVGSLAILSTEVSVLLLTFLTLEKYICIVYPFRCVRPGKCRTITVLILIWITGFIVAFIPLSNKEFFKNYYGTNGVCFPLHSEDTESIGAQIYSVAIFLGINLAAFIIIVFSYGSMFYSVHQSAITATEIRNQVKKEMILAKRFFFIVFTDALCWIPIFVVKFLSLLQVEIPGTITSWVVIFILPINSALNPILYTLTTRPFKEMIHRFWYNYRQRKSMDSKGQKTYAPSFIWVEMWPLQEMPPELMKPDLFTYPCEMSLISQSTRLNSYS

Going from B1 to B2, the “hRXFP1/CHO-K1 cAMP EC50 (nM, avg)” value falls from 0.95 nM to 0.33 nM (2.9-fold).

Going from B3 to B4, the “hRXFP1/CHO-K1 cAMP EC50 (nM, avg)” value falls from 0.44 nM to 0.29 nM (1.5-fold).

Compared with B5, B6 is 1.5-fold higher in “hRXFP1/CHO-K1 cAMP EC50 (nM, avg)” value: 0.18 nM for the first, 0.27 nM for the second.

Going from B7 to B8, the “hRXFP1/CHO-K1 cAMP EC50 (nM, avg)” value rises from 0.39 nM to 3.22 nM (8.3-fold).

B9 and B10 are within 1.5-fold of each other in “hRXFP1/CHO-K1 cAMP EC50 (nM, avg)” value: 0.37 nM for the first, 0.38 nM for the second.

Going from B11 to B12, the “hRXFP1/CHO-K1 cAMP EC50 (nM, avg)” value rises from 0.35 nM to 11.1 nM (32-fold).

Compared with B13, B14 is 2.1-fold higher in “hRXFP1/CHO-K1 cAMP EC50 (nM, avg)” value: 0.32 nM for the first, 0.67 nM for the second.

First: B15
Second: B16
The “hRXFP1/CHO-K1 cAMP EC50 (nM, avg)” value of the first is 1.8-fold lower: 0.34 nM for the first, 0.6 nM for the second.
